Data on four molecules can be found in patent WO2021065846A1 (dated 2021).

Assay [1] addresses T1, anti-HIV-1 V3 antibody 1C10 (0.5γ).
T1 construct: Used as whole bivalent IgG; also called anti-V3 antibody 1C10; 1C10-biotin
Kind of assay: SPR, Biacore T200, biotinylated 1C10 on SA chip, anti-idiotype antibody as analyte.

The target is the same in assay [2]. Kind of assay: inhibition ELISA: biotinylated 1C10 on NNT20 V3 peptide.
The target is the same in assay [3]. Kind of assay: sandwich ELISA: Fab #92 coated as capture, 1C10, biotinylated IgG #87 as detection.

Residue numbers refer to the chain shown, from its start.

T1 sequence (VH, as listed by the source, chain 1 of 2): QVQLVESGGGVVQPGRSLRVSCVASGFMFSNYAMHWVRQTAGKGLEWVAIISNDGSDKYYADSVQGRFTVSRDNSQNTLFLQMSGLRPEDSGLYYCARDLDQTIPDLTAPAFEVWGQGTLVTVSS
T1 sequence (VL, as listed by the source, chain 2 of 2): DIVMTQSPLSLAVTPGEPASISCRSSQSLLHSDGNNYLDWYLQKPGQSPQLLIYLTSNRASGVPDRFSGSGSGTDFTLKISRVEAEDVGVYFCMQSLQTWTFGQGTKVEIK

B1: anti-1C10 idiotype antibody #87 (IgG) (antibody, V domains shown)
VH: QVQLVETGGGLVRPGNSLKLSCVTSGFTFSTYRMHWLRQPPGKRLEWIAVITVKSDGYGANYAQSLKDRFTISRDDSKSSVFLQMNRLREEDTATYYCSRGPDFYGSTYWYFDVWGAGTT
VL: DIVMTQSPSSLDVSVGEKVSMSCKSSQSLLYRSNQKNYLAWYQQKPGQSPRLLIYWASTRESGVPDRFTGSGSGTDFTLTISSVKAEDLAVYYCQQYYSYSTFGAGTKVELK
notes: Mouse variable regions cloned into human IgG expression vectors (pIgGH, pKVA2); Biotinylated where used as detection antibody; also called clone #87; IgG#87
On to B1, for which the affinity in assay [1], expressed as Kd, was 0.0343 nM.

B2: anti-1C10 idiotype antibody #102 (IgG) (antibody, V domains shown)
VH: EVKLLESGGGLVQPGISLKLSCAASGFDFTRDWMSWVRQAPGKGLEWIGEINPDSSAINYTPSLRDKFIISRDNAKNTLYLQMSKVRSEDTALYYCARRGYYGYYLDYWGQGTTLTVSS
VL: B1 VL with D12A, S20T, L30F, Y31F, R51K, R60G, S101P, A105G, V109L, L111I
notes: Mouse variable regions cloned into human IgG expression vectors (pIgGH, pKVA2)
As to B2, the binding result in assay [2] was “binds”.

B3: Fab of anti-1C10 idiotype antibody #92 (Fab, V domains shown)
VH: QVQLQQSGAELAKPGASVKMSCKASGYTFTNYWMHWVKQRPGQGLEWIGFINPNTDYTEYNQKFTDKATLTADKSSNTAYMQLSSLTSEDSALYYCAREDTWFAYWGQGTLVTVSA
VL: DIQMTQSPASLSASVGETVTITCRASENIYSYLAWYQQKQGKSPQLLVYNAKALAEGVPSRFSGSGSGTQFSLKINSLQPEDFGSYYCQHHYRTPYAFGGGTKLEIK
notes: VH cloned into a Fab heavy chain expression vector, co-expressed with the light chain vector, purified on His60 Ni resin; also called Fab#92; #92Fab
As for B3, in assay [3], the binding result is given as “binds”.

B4: anti-1C10 idiotype antibody #92 (IgG) (antibody, V domains shown)
VH: B3 VH
VL: B3 VL
notes: Mouse variable regions cloned into human IgG expression vectors (pIgGH, pKVA2); also called clone #92; IgG#92
Take B4: the binding result in assay [2] is “binds”.
